Paper PMC9348755 (Science (New York, N.y.), 2022)

Assays:
[1] = target: T1, SARS-CoV-2 S fusion peptide K811[…]825 (SARS-CoV-2); test: ELISA; details: both partners purified
T1 construct: source: synthetic peptide
T1 chain: KPSKRSFIEDLLFNK

[2] = target: T2, full length SARS-CoV-2 S Wuhan-Hu-1 on HEK293T cells (Severe acute respiratory syndrome …, UniProt P0DTC2); test: flow cytometry on cells; details: one partner purified
T2 construct: source: HEK293T, transiently transfected, on the cell surface

[3] = target: T3, SARS-CoV S on HEK293T cells (Severe acute respiratory syndrome …, UniProt P59594); test: flow cytometry on cells; details: one partner purified
T3 construct: source: HEK293T, transfected, on the cell surface

[4] = target: T4, MERS-CoV S on HEK293T cells (MERS-CoV, strain ; entry is …, UniProt K9N5Q8); test: flow cytometry on cells; details: one partner purified
T4 construct: source: HEK293T, transfected, on the cell surface

NL63 S on HEK293T cells = NL63 S on HEK293T cells (Human coronavirus NL63, GenBank …, UniProt A0A1L2YVI8); test: flow cytometry on cells; details: one partner purified
229E S on HEK293T cells = target: T5, 229E S on HEK293T cells (Human coronavirus 229E, GenBank …); test: flow cytometry on cells; details: one partner purified
T5 construct: source: HEK293T, transiently transfected, on the cell surface

[5] = target: SARS-CoV-2 S protein (commercially available, recombinant) (SARS-CoV-2 (Wuhan-Hu-1 assumed), UniProt P0DTC2); test: ELISA; mAbs titrated on commercially available hCoV S proteins; EC50 (Fig. 1E); details: both partners purified
[6] = target: OC43 S protein (commercially available, recombinant) (human coronavirus OC43, strain not …, UniProt P36334); test: as above; details: both partners purified
[7] = target: HKU1 S protein (commercially available, recombinant) (human coronavirus HKU1, isolate not …, UniProt Q5MQD0); test: as above; details: both partners purified
[8] = target: NL63 S protein (commercially available, recombinant) (human coronavirus NL63, strain of …, UniProt A0A1L2YVI8); test: as above; details: both partners purified
[9] = target: T6, 229E S protein (commercially available, recombinant) (human coronavirus 229E, strain of …); test: as above; details: both partners purified
T6 chain: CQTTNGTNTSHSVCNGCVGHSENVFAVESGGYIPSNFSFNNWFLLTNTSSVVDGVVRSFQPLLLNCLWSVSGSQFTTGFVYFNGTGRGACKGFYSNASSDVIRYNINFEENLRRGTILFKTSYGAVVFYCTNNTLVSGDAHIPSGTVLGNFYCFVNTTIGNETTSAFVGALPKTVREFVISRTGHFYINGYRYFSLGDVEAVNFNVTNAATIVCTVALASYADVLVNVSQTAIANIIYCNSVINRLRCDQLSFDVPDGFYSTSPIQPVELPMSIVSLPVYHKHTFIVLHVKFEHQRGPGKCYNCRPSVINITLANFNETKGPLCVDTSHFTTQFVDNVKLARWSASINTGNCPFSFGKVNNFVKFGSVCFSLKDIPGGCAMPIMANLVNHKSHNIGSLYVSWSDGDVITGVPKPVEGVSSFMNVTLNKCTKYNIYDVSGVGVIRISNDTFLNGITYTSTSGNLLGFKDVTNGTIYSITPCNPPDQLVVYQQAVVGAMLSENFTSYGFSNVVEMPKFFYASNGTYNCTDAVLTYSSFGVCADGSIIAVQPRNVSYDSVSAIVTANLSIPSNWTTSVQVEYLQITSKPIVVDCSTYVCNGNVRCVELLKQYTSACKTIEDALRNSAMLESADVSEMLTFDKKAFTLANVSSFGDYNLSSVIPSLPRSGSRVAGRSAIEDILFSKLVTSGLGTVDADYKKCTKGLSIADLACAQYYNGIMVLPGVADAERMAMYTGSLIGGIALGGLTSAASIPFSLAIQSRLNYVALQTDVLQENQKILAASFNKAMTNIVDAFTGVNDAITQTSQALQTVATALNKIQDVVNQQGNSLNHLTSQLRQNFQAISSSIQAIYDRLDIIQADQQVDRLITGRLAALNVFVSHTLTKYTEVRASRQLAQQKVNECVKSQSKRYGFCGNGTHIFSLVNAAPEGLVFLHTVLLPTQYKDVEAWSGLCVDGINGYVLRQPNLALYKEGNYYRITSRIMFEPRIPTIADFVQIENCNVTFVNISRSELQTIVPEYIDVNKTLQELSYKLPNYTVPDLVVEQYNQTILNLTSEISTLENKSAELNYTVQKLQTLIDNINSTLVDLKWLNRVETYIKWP

[10] = target: T1, SARS-CoV-2 S fusion peptide K811[…]825; test: crystal structure; Fab in complex with the fusion peptide K811-K825; details: both partners purified

Measured: binding result

Sequence of HKU1 S protein (commercially available, recombinant) (Q5MQD0 13-1356): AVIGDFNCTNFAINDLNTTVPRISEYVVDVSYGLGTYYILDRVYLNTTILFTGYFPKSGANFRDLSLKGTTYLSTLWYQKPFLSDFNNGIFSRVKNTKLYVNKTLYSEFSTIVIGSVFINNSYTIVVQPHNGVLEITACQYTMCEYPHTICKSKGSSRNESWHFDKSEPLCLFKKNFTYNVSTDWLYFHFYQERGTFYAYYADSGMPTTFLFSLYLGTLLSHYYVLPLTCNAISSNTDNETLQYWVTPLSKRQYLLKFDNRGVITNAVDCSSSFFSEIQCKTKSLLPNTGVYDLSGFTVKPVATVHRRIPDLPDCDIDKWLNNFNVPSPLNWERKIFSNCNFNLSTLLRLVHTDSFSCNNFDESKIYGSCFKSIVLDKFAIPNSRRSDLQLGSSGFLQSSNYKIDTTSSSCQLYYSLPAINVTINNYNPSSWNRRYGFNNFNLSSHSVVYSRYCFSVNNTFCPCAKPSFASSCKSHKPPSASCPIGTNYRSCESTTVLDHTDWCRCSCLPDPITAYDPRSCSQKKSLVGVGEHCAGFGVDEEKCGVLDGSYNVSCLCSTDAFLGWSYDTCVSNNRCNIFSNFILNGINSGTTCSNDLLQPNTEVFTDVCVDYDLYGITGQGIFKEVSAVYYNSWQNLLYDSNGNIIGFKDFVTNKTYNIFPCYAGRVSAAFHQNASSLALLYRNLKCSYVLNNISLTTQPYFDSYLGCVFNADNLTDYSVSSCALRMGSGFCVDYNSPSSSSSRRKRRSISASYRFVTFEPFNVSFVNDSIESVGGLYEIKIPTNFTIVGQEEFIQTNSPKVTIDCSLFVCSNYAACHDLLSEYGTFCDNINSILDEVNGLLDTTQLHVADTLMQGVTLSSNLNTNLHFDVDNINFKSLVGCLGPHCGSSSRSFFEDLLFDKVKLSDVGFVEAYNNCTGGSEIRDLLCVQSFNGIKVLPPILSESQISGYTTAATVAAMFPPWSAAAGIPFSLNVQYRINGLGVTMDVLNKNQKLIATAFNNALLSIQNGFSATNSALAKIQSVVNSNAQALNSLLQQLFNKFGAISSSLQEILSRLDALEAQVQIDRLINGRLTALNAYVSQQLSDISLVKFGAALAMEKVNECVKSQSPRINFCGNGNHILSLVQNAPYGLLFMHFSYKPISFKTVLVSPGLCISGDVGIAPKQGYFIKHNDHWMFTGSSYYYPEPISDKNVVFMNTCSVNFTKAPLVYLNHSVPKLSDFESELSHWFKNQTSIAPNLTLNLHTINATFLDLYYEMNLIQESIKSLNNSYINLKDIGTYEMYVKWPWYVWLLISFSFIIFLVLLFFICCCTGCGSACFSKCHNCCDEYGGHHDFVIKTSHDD
Sequence of NL63 S on HEK293T cells (Q6Q1S2 19-1356): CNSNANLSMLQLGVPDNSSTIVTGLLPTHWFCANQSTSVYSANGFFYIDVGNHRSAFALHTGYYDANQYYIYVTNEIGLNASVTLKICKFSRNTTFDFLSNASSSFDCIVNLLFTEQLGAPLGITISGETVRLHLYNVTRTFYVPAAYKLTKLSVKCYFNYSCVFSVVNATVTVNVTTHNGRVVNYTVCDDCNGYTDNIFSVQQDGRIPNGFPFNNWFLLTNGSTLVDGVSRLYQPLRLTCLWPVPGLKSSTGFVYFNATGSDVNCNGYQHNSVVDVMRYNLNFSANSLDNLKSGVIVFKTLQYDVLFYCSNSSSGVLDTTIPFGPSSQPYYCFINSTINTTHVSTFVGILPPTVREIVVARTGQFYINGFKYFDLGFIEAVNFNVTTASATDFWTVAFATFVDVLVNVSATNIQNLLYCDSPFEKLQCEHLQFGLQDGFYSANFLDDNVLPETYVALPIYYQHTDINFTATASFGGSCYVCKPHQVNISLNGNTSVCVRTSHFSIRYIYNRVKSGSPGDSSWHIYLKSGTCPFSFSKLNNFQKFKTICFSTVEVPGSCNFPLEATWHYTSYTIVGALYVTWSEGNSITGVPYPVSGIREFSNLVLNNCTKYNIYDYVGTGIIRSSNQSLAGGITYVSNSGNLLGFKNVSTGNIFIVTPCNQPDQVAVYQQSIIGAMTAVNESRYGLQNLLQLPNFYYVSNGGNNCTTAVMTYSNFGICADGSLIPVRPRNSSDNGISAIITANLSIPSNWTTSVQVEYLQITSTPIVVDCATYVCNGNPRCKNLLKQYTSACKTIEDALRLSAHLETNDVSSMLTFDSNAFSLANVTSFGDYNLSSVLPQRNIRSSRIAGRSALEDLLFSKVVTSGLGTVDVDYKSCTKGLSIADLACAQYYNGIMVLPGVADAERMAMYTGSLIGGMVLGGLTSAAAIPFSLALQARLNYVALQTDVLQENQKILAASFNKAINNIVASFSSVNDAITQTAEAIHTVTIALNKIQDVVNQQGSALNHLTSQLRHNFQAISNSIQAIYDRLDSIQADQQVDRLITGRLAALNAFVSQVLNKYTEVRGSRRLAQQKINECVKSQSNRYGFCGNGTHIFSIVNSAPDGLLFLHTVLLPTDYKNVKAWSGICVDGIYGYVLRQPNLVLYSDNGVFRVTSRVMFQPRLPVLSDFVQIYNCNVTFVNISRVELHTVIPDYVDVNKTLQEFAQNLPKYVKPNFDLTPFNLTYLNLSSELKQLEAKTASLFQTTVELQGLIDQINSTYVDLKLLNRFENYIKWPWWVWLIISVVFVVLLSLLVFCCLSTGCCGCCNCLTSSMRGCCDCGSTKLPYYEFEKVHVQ
T5 sequence (P15423 16-1173): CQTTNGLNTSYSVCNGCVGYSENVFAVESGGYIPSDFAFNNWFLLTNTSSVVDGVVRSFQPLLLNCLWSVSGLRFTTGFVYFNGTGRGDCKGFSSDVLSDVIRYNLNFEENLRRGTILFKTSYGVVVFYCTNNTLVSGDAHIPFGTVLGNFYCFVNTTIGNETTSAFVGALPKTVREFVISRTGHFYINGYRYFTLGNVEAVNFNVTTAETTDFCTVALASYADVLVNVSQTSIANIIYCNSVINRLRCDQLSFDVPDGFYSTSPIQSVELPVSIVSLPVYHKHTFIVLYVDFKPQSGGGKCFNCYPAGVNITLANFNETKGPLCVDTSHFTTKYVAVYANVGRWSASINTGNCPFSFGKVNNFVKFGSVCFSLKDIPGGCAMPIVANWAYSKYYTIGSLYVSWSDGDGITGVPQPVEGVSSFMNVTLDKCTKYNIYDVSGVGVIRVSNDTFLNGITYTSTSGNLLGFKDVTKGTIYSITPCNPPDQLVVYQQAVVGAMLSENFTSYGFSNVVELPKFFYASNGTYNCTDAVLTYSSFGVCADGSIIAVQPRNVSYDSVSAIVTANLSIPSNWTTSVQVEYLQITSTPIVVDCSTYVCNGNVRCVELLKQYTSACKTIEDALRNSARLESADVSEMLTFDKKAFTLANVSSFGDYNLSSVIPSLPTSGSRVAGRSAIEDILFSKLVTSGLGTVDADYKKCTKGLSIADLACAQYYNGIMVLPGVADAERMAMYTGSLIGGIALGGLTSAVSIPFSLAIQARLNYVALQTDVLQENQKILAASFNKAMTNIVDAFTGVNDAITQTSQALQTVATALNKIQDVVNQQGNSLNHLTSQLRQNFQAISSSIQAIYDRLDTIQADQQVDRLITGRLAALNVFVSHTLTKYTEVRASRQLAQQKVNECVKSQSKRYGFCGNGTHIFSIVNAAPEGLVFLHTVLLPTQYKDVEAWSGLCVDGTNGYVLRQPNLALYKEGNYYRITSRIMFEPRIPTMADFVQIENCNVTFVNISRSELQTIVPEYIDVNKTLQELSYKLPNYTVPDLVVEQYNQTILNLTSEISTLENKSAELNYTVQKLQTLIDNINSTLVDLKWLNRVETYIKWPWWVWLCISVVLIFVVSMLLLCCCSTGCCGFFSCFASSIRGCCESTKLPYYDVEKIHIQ

B1: C13B8 mAb (antibody, V domains shown)
VH: QVQLQESGPGLVQPSQTLTLTCTVSGDSISNEDYHWTWIRQHPGKGLEWMGYLQYSGNTNYNPSLKSRMTISVDTSKNQFSLRLNSVTAADTAVYFCATSIVLTGMSNKIQPFDYWGQGTLVTVSS
VL: SYELTQPPSVSVSPGQMARITCSGEALPKKYAYWYQQKGGQFPVLVIYKDTERPSGIPERFSGSSSGTIVTLTISGVQPEDEADYYCLSADTSGTWVFGGGTKLTVL
notes: also called Group 3 mAb; fusion peptide-specific mAb
not listed: [10]
binds: all other assays above

B2: C13B8 Fab (Fab, V domains shown)
VH: QVQLQESGPGLVQPSQTLTLTCTVSGDSISNEDYHWTWIRQHPGKGLEWMGYLQYSGNTNYNPSLKSRMTISVDTSKNQFSLRLNSVTAADTAVYFCATSIVLTGMSNKIQPFDYWGQGTLVTVSS
VL: SYELTQPPSVSVSPGQMARITCSGEALPKKYAYWYQQKGGQFPVLVIYKDTERPSGIPERFSGSSSGTIVTLTISGVQPEDEADYYCLSADTSGTWVFGGGTKLTVL
binds: [10]

B3: VN01H1 mAb (antibody, V domains shown)
VH: EVQLVESGGGLVLPGGSLRLSCSASGFTFSDFSMHWVRQSPGKGLEYVSAITSSGSSTYYPDSVKGRFTISRDNSKNTLYLQMGSLRVEDTAVYWCVKNSDVFRFPHLYFDVWGRGTLVTVSS
VL: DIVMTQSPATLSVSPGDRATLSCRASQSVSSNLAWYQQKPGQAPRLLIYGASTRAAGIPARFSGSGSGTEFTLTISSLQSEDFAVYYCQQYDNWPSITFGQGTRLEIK
notes: as for B1
not listed: [10]
binds: all other assays above

B4: VN01H1 Fab (Fab, V domains shown)
VH: EVQLVESGGGLVLPGGSLRLSCSASGFTFSDFSMHWVRQSPGKGLEYVSAITSSGSSTYYPDSVKGRFTISRDNSKNTLYLQMGSLRVEDTAVYWCVKNSDVFRFPHLYFDVWGRGTLVTVSS
VL: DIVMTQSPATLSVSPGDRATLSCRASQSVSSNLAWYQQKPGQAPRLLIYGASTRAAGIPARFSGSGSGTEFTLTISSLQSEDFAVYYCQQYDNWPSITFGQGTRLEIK
binds: [10]

B5: C13C9 mAb (antibody, V domains shown)
VH: EVQLVQSGPEVKKPGTSARVSCKASGFTSKNTALQWVRQARGQPLEWMGWIDISNYITNYAQKFRGRLTITWDLSASMAYMELSSLRSEDTAVYYCAAVGKDDDVLTGGNKYFDHWGQGTLVTVSS
VL: SYELTQPPSVSVSPGQTARITCSGDALPKKYAYWYQQKSGQAPVLVIHEDDKRPSGIPGRFSASSSGTTATLTISGAQVEDEADYYCYSTDTNDNHAFGSGTKLTVL
notes: as for B1
not listed: [10]
binds: all other assays above

B6: C13C9 Fab (Fab, V domains shown)
VH: EVQLVQSGPEVKKPGTSARVSCKASGFTSKNTALQWVRQARGQPLEWMGWIDISNYITNYAQKFRGRLTITWDLSASMAYMELSSLRSEDTAVYYCAAVGKDDDVLTGGNKYFDHWGQGTLVTVSS
VL: SYELTQPPSVSVSPGQTARITCSGDALPKKYAYWYQQKSGQAPVLVIHEDDKRPSGIPGRFSASSSGTTATLTISGAQVEDEADYYCYSTDTNDNHAFGSGTKLTVL
binds: [10]

B7: VP12E7 mAb (antibody, V domains shown)
VH: QVQLVQSGGGVVQPGESLRLSCSGSGFTFNNYIMHWVRQAPGQGLDYVSGIGSDGRNTNYGDSVKGRFTISRDNSKDTLYLQMTSLRAEDTAFYYCVKGLDVLRFLDLSTPSGERLDAFDIWGQGTMVTVSS
VL: DIVMTQSPSFLSASVGDRVTITCRASQGISNYLAWYQQKPGKAPHLLIYAASTLQSGVPSRFSGSGSGTEFTLTISSLQPEDFATYYCQQLNSYPLFTFGPGTKVDIE
notes: as for B1
not listed: [10]
binds: all other assays above

B8: VP12E7 Fab (Fab, V domains shown)
VH: QVQLVQSGGGVVQPGESLRLSCSGSGFTFNNYIMHWVRQAPGQGLDYVSGIGSDGRNTNYGDSVKGRFTISRDNSKDTLYLQMTSLRAEDTAFYYCVKGLDVLRFLDLSTPSGERLDAFDIWGQGTMVTVSS
VL: DIVMTQSPSFLSASVGDRVTITCRASQGISNYLAWYQQKPGKAPHLLIYAASTLQSGVPSRFSGSGSGTEFTLTISSLQPEDFATYYCQQLNSYPLFTFGPGTKVDIE
binds: [10]

B9: C77G12 mAb (antibody, V domains shown)
VH: EVQLVESGGGVVQPGRSLRISCAVSGFTFGSYAMHWVRQAPGKGLEWVGVMSSDGHNEYYADSVKGRFTISRDNSRNKLYLEMNNLRVDDTAVFYCARGSDYVDDSPPLHYWGQGTLVTVSS
VL: DIQLTQSPSSLSASIGDRVTITCRASQDIANKLAWFQQAPGKAPKSLIYAASRLQSGVPSQFSGSGSGTDFTLTIESLQAGDFATYFCQQYDSFPFTFGPGTKVDVK
notes: as for B1
not listed: [10]
binds: all other assays above

B10: C77G12 Fab (Fab, V domains shown)
VH: EVQLVESGGGVVQPGRSLRISCAVSGFTFGSYAMHWVRQAPGKGLEWVGVMSSDGHNEYYADSVKGRFTISRDNSRNKLYLEMNNLRVDDTAVFYCARGSDYVDDSPPLHYWGQGTLVTVSS
VL: DIQLTQSPSSLSASIGDRVTITCRASQDIANKLAWFQQAPGKAPKSLIYAASRLQSGVPSQFSGSGSGTDFTLTIESLQAGDFATYFCQQYDSFPFTFGPGTKVDVK
binds: [10]
